# Experimental data as given in the supplement of paper PMC10598134.
# ± gives the standard deviation.
# Assay: collision cross section of modified peptide (TIMS, N2, iRT-aligned); higher = larger / more extended gas-phase ion
# Method in brief: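 Synthetic peptide pools (~100 fmol/µL in 2% acetonitrile/0.1% formic acid, iRT standard spiked 1:40) were separated on a 120-min nanoflow C18 gradient at 60 °C. They were analysed on a timsTOF Pro/HT (dda-PASEF, nitrogen, ~2.4 mbar) and identified with MaxQuant. 1/K0 was calibrated with three reference ions and aligned run-wise to the median iRT peptide deviation. Collision cross section came from the Mason-Schamp equation, averaging 1–3 technical replicates of the most abundant feature per charge state.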
# [1] = charge state: 2, modification: Propionyl
# [2] = charge state: 2, modification: Succinyl
# [3] = charge state: 2, modification: Trimethyl (K)
# [4] = charge state: 3, modification: Trimethyl (K)
# [5] = charge state: 2, modification: hydroxyisobutyryl
# [6] = charge state: 2, modification: Nitro (Y)
# [7] = charge state: 2, modification: Citrullination (R)
# [8] = charge state: 3, modification: Methyl (R)
# [9] = charge state: 2, modification: Phospho (Y)
# [10] = charge state: 2, modification: HexNAc (ST)
# [11] = charge state: 2, modification: Acetyl (K)
# [12] = charge state: 3, modification: Acetyl (K)
# [13] = charge state: 3, modification: Biotin
# [14] = charge state: 2, modification: Butyryl
# [15] = charge state: 3, modification: Butyryl
# [16] = charge state: 2, modification: Crotonyl
# [17] = charge state: 3, modification: Crotonyl
# [18] = charge state: 3, modification: Dimethyl (K)
# [19] = charge state: 2, modification: Formyl
# [20] = charge state: 3, modification: Formyl
# [21] = charge state: 2, modification: Glutarylation
# [22] = charge state: 3, modification: Glutarylation
# [23] = charge state: 2, modification: GlyGly (K)
# [24] = charge state: 3, modification: GlyGly (K)
# [25] = charge state: 3, modification: Methyl (K)
# [26] = charge state: 3, modification: Propionyl
# [27] = charge state: 3, modification: Succinyl
# [28] = charge state: 3, modification: hydroxyisobutyryl
# [29] = charge state: 2, modification: Malonyl
substance,measurement,setting,value
LTSLNVKYNNDK [_LTSLNVK(Propionyl)YNNDK_],collision cross section,[1],410.81 ± 0.38 Å²
LTSLNVKYNNDK [_LTSLNVK(Succinyl)YNNDK_],collision cross section,[2],411.65 ± 1.1 Å²
LTSLNVKYNNDK [_LTSLNVK(Trimethyl (K))YNNDK_],collision cross section,[3],406.52 ± 0.61 Å²
same,collision cross section,[4],461.22 ± 1.8 Å²
LTSLNVKYNNDK [_LTSLNVK(hydroxyisobutyryl)YNNDK_],collision cross section,[5],415.97 ± 0.31 Å²
LVFDEYLK [_LVFDEY(Nitro (Y))LK_],collision cross section,[6],355.63 ± 0.17 Å²
LVLPSQAQARLPSGEVVK [_LVLPSQAQAR(Citrullination (R))LPSGEVVK_],collision cross section,[7],464.28 ± 0.94 Å²
same,collision cross section,"charge state: 3, modification: Citrullination (R)",522.33 ± 4.3 Å²
LVLPSQAQARLPSGEVVK [_LVLPSQAQAR(Methyl (R))LPSGEVVK_],collision cross section,[8],522.24 ± 0.66 Å²
LYAVHQEGNK [_LY(Nitro (Y))AVHQEGNK_],collision cross section,[6],359.52 ± 0.17 Å²
same,collision cross section,"charge state: 3, modification: Nitro (Y)",458.4 ± 0.23 Å²
LYAVHQEGNK [_LY(Phospho (Y))AVHQEGNK_],collision cross section,[9],367.74 ± 0.74 Å²
same,collision cross section,"charge state: 3, modification: Phospho (Y)",466.01 ± 0.98 Å²
LYDIDVAK [_LY(Nitro (Y))DIDVAK_],collision cross section,[6],344.32 ± 0.56 Å²
LYDIDVAK [_LY(Phospho (Y))DIDVAK_],collision cross section,[9],363.27 ± 0.78 Å²
LYLPVQNK [_LY(Nitro (Y))LPVQNK_],collision cross section,[6],340.84 ± 0.55 Å²
LYLPVQNK [_LY(Phospho (Y))LPVQNK_],collision cross section,[9],343.68 ± 6.9 Å²
MFLSFPTTK [_MFLS(HexNAc (ST))FPTTK_],collision cross section,[10],373.63 ± 0.17 Å²
MTLSVLSR [_MTLS(HexNAc (ST))VLSR_],collision cross section,[10],352.44 ± 0.8 Å²
NLVTGDHIPTPQDLPQR [_NLVT(HexNAc (ST))GDHIPTPQDLPQR_],collision cross section,"charge state: 3, modification: HexNAc (ST)",500.97 Å²
PANEKATDDYHYEK [_PANEK(Acetyl (K))ATDDYHYEK_],collision cross section,[11],436.41 ± 2.5 Å²
same,collision cross section,[12],502.57 ± 2 Å²
PANEKATDDYHYEK [_PANEK(Biotin)ATDDYHYEK_],collision cross section,[13],529.25 ± 3.6 Å²
PANEKATDDYHYEK [_PANEK(Butyryl)ATDDYHYEK_],collision cross section,[14],443.05 ± 0.53 Å²
same,collision cross section,[15],509.24 ± 1.8 Å²
PANEKATDDYHYEK [_PANEK(Crotonyl)ATDDYHYEK_],collision cross section,[16],442.98 ± 0.0094 Å²
same,collision cross section,[17],509.39 ± 1.3 Å²
PANEKATDDYHYEK [_PANEK(Dimethyl (K))ATDDYHYEK_],collision cross section,[18],491.56 Å²
PANEKATDDYHYEK [_PANEK(Formyl)ATDDYHYEK_],collision cross section,[19],435.25 ± 0.72 Å²
same,collision cross section,[20],497.77 ± 2.4 Å²
PANEKATDDYHYEK [_PANEK(Gluratylation)ATDDYHYEK_],collision cross section,[21],448.09 ± 1.5 Å²
same,collision cross section,[22],511.51 ± 1 Å²
PANEKATDDYHYEK [_PANEK(GlyGly (K))ATDDYHYEK_],collision cross section,[23],439.63 ± 1.2 Å²
same,collision cross section,[24],506.82 ± 0.35 Å²
PANEKATDDYHYEK [_PANEK(Malonyl)ATDDYHYEK_],collision cross section,"charge state: 3, modification: Malonyl",498.89 ± 1.6 Å²
PANEKATDDYHYEK [_PANEK(Methyl (K))ATDDYHYEK_],collision cross section,[25],492.44 ± 0.72 Å²
PANEKATDDYHYEK [_PANEK(Propionyl)ATDDYHYEK_],collision cross section,[26],507.47 ± 0.5 Å²
PANEKATDDYHYEK [_PANEK(Succinyl)ATDDYHYEK_],collision cross section,[2],446.9 ± 1.1 Å²
same,collision cross section,[27],500.9 ± 1.6 Å²
PANEKATDDYHYEK [_PANEK(Trimethyl (K))ATDDYHYEK_],collision cross section,[4],499.05 Å²
PANEKATDDYHYEK [_PANEK(hydroxyisobutyryl)ATDDYHYEK_],collision cross section,[5],446.18 ± 0.51 Å²
same,collision cross section,[28],509.04 ± 1.9 Å²
PARGLYSR [_PAR(Citrullination (R))GLYSR_],collision cross section,[7],324.52 ± 2.2 Å²
PARGLYSR [_PAR(Methyl (R))GLYSR_],collision cross section,"charge state: 2, modification: Methyl (R)",338.81 ± 0.66 Å²
same,collision cross section,[8],407.19 Å²
PASGAGAGAGAGKR [_PASGAGAGAGAGK(Acetyl (K))R_],collision cross section,[11],357.24 ± 1 Å²
same,collision cross section,[12],456.58 ± 2.9 Å²
PASGAGAGAGAGKR [_PASGAGAGAGAGK(Biotin)R_],collision cross section,"charge state: 2, modification: Biotin",377.47 Å²
same,collision cross section,[13],490.64 Å²
PASGAGAGAGAGKR [_PASGAGAGAGAGK(Butyryl)R_],collision cross section,[14],358.98 ± 1.3 Å²
same,collision cross section,[15],461.52 ± 2.9 Å²
PASGAGAGAGAGKR [_PASGAGAGAGAGK(Crotonyl)R_],collision cross section,[16],364.92 ± 9.9 Å²
same,collision cross section,[17],464.44 ± 2.8 Å²
PASGAGAGAGAGKR [_PASGAGAGAGAGK(Dimethyl (K))R_],collision cross section,"charge state: 2, modification: Dimethyl (K)",385.92 ± 1.6 Å²
same,collision cross section,[18],457.59 ± 1.6 Å²
PASGAGAGAGAGKR [_PASGAGAGAGAGK(Formyl)R_],collision cross section,[19],349.96 ± 1.4 Å²
same,collision cross section,[20],453.33 ± 1.2 Å²
PASGAGAGAGAGKR [_PASGAGAGAGAGK(Gluratylation)R_],collision cross section,[21],357.87 ± 1.2 Å²
same,collision cross section,[22],467.6 ± 2 Å²
PASGAGAGAGAGKR [_PASGAGAGAGAGK(GlyGly (K))R_],collision cross section,[23],395.09 ± 1.4 Å²
same,collision cross section,[24],472.77 ± 1.1 Å²
PASGAGAGAGAGKR [_PASGAGAGAGAGK(Malonyl)R_],collision cross section,[29],352.42 ± 0.026 Å²
PASGAGAGAGAGKR [_PASGAGAGAGAGK(Methyl (K))R_],collision cross section,"charge state: 2, modification: Methyl (K)",381.78 ± 0.91 Å²
same,collision cross section,[25],459.46 ± 3.9 Å²
PASGAGAGAGAGKR [_PASGAGAGAGAGK(Propionyl)R_],collision cross section,[1],359.78 ± 0.65 Å²
same,collision cross section,[26],464.2 ± 0.076 Å²
PASGAGAGAGAGKR [_PASGAGAGAGAGK(Succinyl)R_],collision cross section,[2],354.83 ± 0.23 Å²
same,collision cross section,[27],462.42 ± 2 Å²
PASGAGAGAGAGKR [_PASGAGAGAGAGK(Trimethyl (K))R_],collision cross section,[3],392.96 ± 2.2 Å²
same,collision cross section,[4],465.02 ± 1.8 Å²
PASGAGAGAGAGKR [_PASGAGAGAGAGK(hydroxyisobutyryl)R_],collision cross section,[5],363.2 ± 0.9 Å²
same,collision cross section,[28],470.09 ± 2.8 Å²
PATSYVR [_PATSY(Nitro (Y))VR_],collision cross section,[6],318.95 ± 2.2 Å²
PATSYVR [_PATSY(Phospho (Y))VR_],collision cross section,[9],328.8 ± 0.068 Å²
PAVTAAPK [_PAVT(HexNAc (ST))AAPK_],collision cross section,[10],333.39 ± 1 Å²
PDTQYTGR [_PDTQY(Nitro (Y))TGR_],collision cross section,[6],325.57 ± 0.55 Å²
PDTQYTGR [_PDTQY(Phospho (Y))TGR_],collision cross section,[9],335.56 ± 0.067 Å²
PGGEGPQCEKTTDVK [_PGGEGPQCEK(Acetyl (K))TTDVK_],collision cross section,[11],415.43 ± 2 Å²
PGGEGPQCEKTTDVK [_PGGEGPQCEK(Butyryl)TTDVK_],collision cross section,[14],421.37 ± 0.77 Å²
PGGEGPQCEKTTDVK [_PGGEGPQCEK(Formyl)TTDVK_],collision cross section,[19],413.32 Å²
PGGEGPQCEKTTDVK [_PGGEGPQCEK(Gluratylation)TTDVK_],collision cross section,[21],428.07 ± 0.56 Å²
PGGEGPQCEKTTDVK [_PGGEGPQCEK(GlyGly (K))TTDVK_],collision cross section,[23],422.06 ± 1.9 Å²
same,collision cross section,[24],492.2 ± 3 Å²
PGGEGPQCEKTTDVK [_PGGEGPQCEK(Malonyl)TTDVK_],collision cross section,[29],427.2 Å²
